# Results: paper PMC5724578 (Biochemistry, 2017)
# B1: EVH1 Y39E: phosphomimetic Y39E mutant of human VASP EVH1 domain (protein)
# chain: GPGGRMSSETVICSSRATVMLYDDGNKRWLPAGTGPQAFSRVQIEHNPTANSFRVVGRKMQPDQQVVINCAIVRGVKYNQATPNFHQWRDARQVWGLNFGSKEDAAQFAAGMASALEALEG
# modifications: left off: His tag, end not stated, cleaved
# Experiment: Stability of EVH1 mutant in aqueous solution
# Type: physicochemical
molecule,measurement,value
B1,stability in aqueous solution,stable in aqueous solution
